Broadly, the IC50 is the concentration that gives 50% inhibition. A low value points to greater potency.

The values below come from patent publication US10925969B2, “Anti-BCMA polypeptides and proteins” (priority 2015, dated 2021).

Where only a bound is given, the exact number is not on record here.

Assay [1] deals with H929 cells. In words: In vitro sensitivity to abraxane and bortezumib. The format is cell-based. The settings on record: Homo sapiens, NCI-H929. As for the experimental part: The sensitivity of H929 and U266B cells to abraxane and bortezumib (BTZ) was measured in vitro.
For assay [2], the system named is H929. Description: WST assay of immunotoxin activity. The format is cell-based. The method, then:
(§1) The activity of the anti-BCMA immunotoxins against BCMA-expressing cell lines and cells from four multiple myeloma patients was tested by WST assay.

The test system of assay [3] is HUT-102. In words: WST assay of immunotoxin activity. The format is cell-based. As for the experimental part: as §1
The subject of assay [4] is JJN-3. Description: WST assay of immunotoxin activity. The format is cell-based. As for the experimental part:
as §1

The test system of assay [5] is Jeko-1. In words: WST assay of immunotoxin activity. The format is cell-based. The method, then:
as §1

Assay [6] deals with KMS-18. Description: WST assay of immunotoxin activity. The format is cell-based. The method, then:
as §1

The test system of assay [7] is LP-1. In words: WST assay of immunotoxin activity. The format is cell-based. The method, then:
as §1

Assay [8] has as its system RPMI-8226. Description: WST assay of immunotoxin activity. The format is cell-based. As for the experimental part: as §1
Assay [9] concerns U266B. In words: WST assay of immunotoxin activity. The format is cell-based. The method, then:
as §1

Assay [10] deals with MM-1 cells from patient. Description: WST assay, cells from multiple myeloma patient. The format is cell-based, human. The settings on record: cells from patient MM-1. The method, then: as §1
Assay [11] relates to MM-2 cells from patient. Description: WST assay, cells from multiple myeloma patient. The format is cell-based, human. The settings on record: cells from patient MM-2. As for the experimental part: as §1
The subject of assay [12] is MM-3 cells from patient. Description: WST assay, cells from multiple myeloma patient. The format is cell-based, human. The note with it: cells from patient MM-3. As for the experimental part:
as §1

Assay [13] relates to MM-4 cells from patient. In words: WST assay, cells from multiple myeloma patient. The settings on record: cells from patient MM-4. The format is cell-based, human. The method, then:
as §1

Assay [14] concerns BCMA-positive H929 cells. In words: Cell killing at fixed dose, trypan blue staining after timed exposure. The format is cell-based. The settings on record: H929, 100 ng/ml. As for the experimental part:
Cell killing activity was measured by trypan blue staining of cells taken at various time points (days) after exposure to the immunotoxin.

Assay [15] deals with H929 xenograft tumors. Description: Antitumor activity in mice with H929 xenograft tumors. The settings on record: 1.5 mg/kg QODX5, SCID mice. The format is in vivo. The method, then: To test the in vivo efficacy of LMB38 and LMB70, tumors were grown in SCID mice using the most sensitive cell line H929. Based on the previous toxicity data, 1.5 mg/kg QODX5 doses were used on 5 mice in each group. […] However, the tumors grew back once the treatment was finished.

The test system of assay [16] is H929 cells. In words: WST-8 assay of AF647-labeled and unlabeled LMB70. The format is cell-based. The settings on record: in ng/mL. The method, then: (§2) LMB70 was labeled with AF647 for measurement of uptake in vivo. LMB70 was labeled twice with AF647 using an AF647 labeling kit (Life Technologies). Labeling efficacy and activity were measured by WST-8 assay and affinity measurement.

For assay [17], the target named is T1, BCMA (Homo sapiens, UniProt Q02223).
T1 sequence (Q02223 1-184): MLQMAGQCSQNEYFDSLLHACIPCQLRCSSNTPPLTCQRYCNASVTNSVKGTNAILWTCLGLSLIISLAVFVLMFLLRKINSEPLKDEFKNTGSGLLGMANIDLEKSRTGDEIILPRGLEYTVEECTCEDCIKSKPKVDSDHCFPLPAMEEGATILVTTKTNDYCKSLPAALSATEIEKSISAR
In words: Affinity measurement of AF647-labeled and unlabeled LMB70. The format is binding. The note with it: after the first labeling. As for the experimental part:
as §2

Assay [18] concerns H929 cells. In words: Cell viability by flow cytometry (Annexin V/7AAD staining) after various exposure durations. The format is cell-based. The note with it: viability after 3 days. As for the experimental part: H929 cells were exposed to LMB70 for various durations. Cell viability was analyzed after 3 days by flow cytometry (Annexin V/7AAD staining).
H929 cells were exposed to 2 ng/ml LMB70 for various lengths of time from 10 minutes up to 72 hours. Cell viability was analyzed after 3 days by flow cytometry (Annexin V/7AAD staining).
(In flow cytometry, cells or beads pass a laser one at a time.)

In assay [19] the test system is H929 cells. In words: Cell viability by trypan blue staining after 20 minute exposure. The format is cell-based. The settings on record: 100 ng/ml for 20 minutes. The method, then:
H929 cells were exposed to 100 ng/ml LMB70 for 20 minutes. Cell viability was analyzed with trypan blue staining.

Assay [20] has as its system H929 cells. Description: Cell viability and cell density at varying LMB70 concentrations. The format is cell-based. The note with it: 2 hours or 6 hours exposure. As for the experimental part: H929 cells were exposed to 2, 10, and 100 ng/ml LMB70 for 2 hours or 6 hours. Cell viability and cell density were analyzed.

`CC(C)C[C@H](NC(=O)[C@H](Cc1ccccc1)NC(=O)c1cnccn1)B(O)O` [BTZ, bortezomib] yielded an IC50 in assay [1] of 4 nM.

B1: LMB70: anti-BCMA immunotoxin BM306-Fab-LR-GGS (conjugate)
VH: EVQLQQSGPELVKPGASVKISCKTSGYTFTEYTINWVKQSHGKSLEWIGDIYPDNYNIRYNQKFKGKATLTVDKSSSTAYMELRSLSSEDSAIYYCANHDFFVFWGQGTLVTVSA
VL: DIQMTQATSSLSASLGDRVTINCRTSQDISNHLNWYQQKPDGTVKLLIYYTSRLQSGVPSRFSGSGSGTDYSLTISNLEQEDIGTYFCHQGNTLPPTFGGGTKLEIK
modifications: left off: another chain or arm of the molecule; a dimerising Fc or GST; small tags and cut ends
notes: anti-BCMA immunotoxin BM306-Fab-LR-GGS
For B1, the “IC50” value in [2] is 0.0011 µg/mL; in [3] it was >0.1 µg/mL; in assay [4] it was 0.004 µg/mL; in assay [5], >0.1 µg/mL; in [6], 0.065 µg/mL; in assay [7] it was 0.02 µg/mL. The concentration for half-maximal inhibition (IC50) in [8] stood at 0.0051 µg/mL; in [9], 0.005 µg/mL; in [10], 0.0004 µg/mL; in assay [11], 0.017 µg/mL; in assay [12], 0.0023 µg/mL; in [13] it was 0.0179 µg/mL. For the same molecule, the Percent dead is given as 43% in assay [14] (2 hr exposure, D-1); 88% in [14] (2 hr exposure, D-2); 100% in assay [14] (2 hr exposure, D-5); 100% in [14] (2 hr exposure, D-7); 44% in assay [14] (4 hr exposure, D-1); 89% in assay [14] (4 hr exposure, D-2). Moreover, the Percent dead was 100% in [14] (4 hr exposure, D-5); 100% in assay [14] (4 hr exposure, D-7); 42% in assay [14] (6 hr exposure, D-1); 88% in [14] (6 hr exposure, D-2); 100% in assay [14] (6 hr exposure, D-5); 100% in assay [14] (6 hr exposure, D-7). For the same molecule, the Percent dead in [14] (24 hr exposure, D-1) is reported as 51%; in assay [14] (24 hr exposure, D-2) it was 95%; in assay [14] (24 hr exposure, D-5) it was 100%; in assay [14] (24 hr exposure, D-7), 100%. In addition, the “tumor growth compared to PBS-treated mice” value in [15] was “delayed”. Moreover, the “tumors once the treatment was finished” value in [15] is recorded as “grew back”. The “IC50 (WST-8)” value came to 1.532 in assay [16] (after the first labeling) and 2.758 in assay [16] (after the second labeling). Besides, in assay [17], the “Bmax (affinity measurement)” value stood at 2220. Further, in assay [18] (2 ng/ml, even after 24 hours of exposure), the cell death result was “did not die”. Further, in [18] (100 ng/ml), the “exposure time sufficient to kill cells” value is ≤ 10 min. In addition, the “time after exposure at which cells started to die” value in [19] is 24 h. In assay [19], the “time after which all cells were dead” value is 3 days. Besides, the “effect on cell viability and growth” value in assay [20] (2 ng/ml) is “slight growth inhibition, but no cell killing”; in assay [20] (10 ng/ml), “not enough to kill all cells”.
